Data published in US20250154198A1, “PEPTIDE INHIBITORS OF INTERLEUKIN-23 RECEPTOR” (Zealand Pharma A/S, priority 2021, published 2025).
Read-outs that look alike come from different tables or passages of the source. *1 amine or outer side, *2 acyl side, *3 side chain or, on linkers, in order; H or OH if unused. Bridges are numbered along the chain shown (N, C = ends). Primed or numbered codes have the meaning given here. [ ]: non-standard residue; d: D form. 4‑Aminomethyl‑phenylacetyl = 4-aminomethyl-phenylacetyl unit, its amine closes the lactam, O=C(Cc1ccc(CN[*:1])cc1)[*:2]; 1,3‑dibromopropan‑2‑one = linker (CAS 816-39-7) joining two Cys as 1,3-dithio-propan-2-one bridge -SCH2C(=O)CH2S-; 1,3‑dibromopropan‑2‑one(3) = linker giving 1,3-dithio-propan-2-one bridge -SCH2C(=O)CH2S- between Cys; 2Nal = N[C@@H](Cc1ccc2ccccc2c1)C(=O)O; AEF = NCCOc1ccc(C[C@H](N)C(=O)O)cc1; 3Pal = N[C@@H](Cc1cccnc1)C(=O)O; αMeL = CC(C)C[C@](C)(N)C(=O)O; Dab = NCC[C@H](N)C(=O)O

Assays:
[1] = molecular target: T1, human IL-23R endogenously expressed on DB cells (CRL-2289) (human, UniProt Q5VWK5 24-629); assay: cell-based or functional assay
T1 sequence (looked up): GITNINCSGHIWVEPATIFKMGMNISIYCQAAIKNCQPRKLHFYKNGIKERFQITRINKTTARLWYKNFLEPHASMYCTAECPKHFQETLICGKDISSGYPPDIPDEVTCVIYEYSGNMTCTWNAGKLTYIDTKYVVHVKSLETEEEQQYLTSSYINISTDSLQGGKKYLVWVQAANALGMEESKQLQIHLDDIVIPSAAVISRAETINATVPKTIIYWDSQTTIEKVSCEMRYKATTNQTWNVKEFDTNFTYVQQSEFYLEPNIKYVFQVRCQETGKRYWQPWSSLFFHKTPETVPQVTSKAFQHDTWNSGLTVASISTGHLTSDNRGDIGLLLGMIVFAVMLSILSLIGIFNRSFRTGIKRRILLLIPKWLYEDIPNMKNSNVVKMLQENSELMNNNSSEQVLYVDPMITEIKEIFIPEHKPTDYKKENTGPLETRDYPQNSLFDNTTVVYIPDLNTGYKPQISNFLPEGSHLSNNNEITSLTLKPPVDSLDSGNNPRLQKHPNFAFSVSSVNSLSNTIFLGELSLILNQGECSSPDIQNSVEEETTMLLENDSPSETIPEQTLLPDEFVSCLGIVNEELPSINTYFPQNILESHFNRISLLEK

[2] = molecular target: T1, human IL-23R endogenously expressed on …; assay: cell-based or functional assay; remark: listed apart in the source
[3] = molecular target: T1, human IL-23R endogenously expressed on …; assay: cell-based or functional assay; remark: listed apart in the source
[4] = molecular target: T2, Nluc-IL23R fusion protein (human, UniProt Q5VWK5 22-629); assay: BRET displacement of TAMRA-labelled peptide, Nluc-IL23R membranes
T2 construct: range 22-629; Stably expressed in HEK293 cells; also called hIL-23R; human IL-23R fused to a Nanoluc luciferase enzyme; not shown: Nanoluc luciferase (Promega N1371 plasmid) at the N-terminus
T2 sequence (looked up): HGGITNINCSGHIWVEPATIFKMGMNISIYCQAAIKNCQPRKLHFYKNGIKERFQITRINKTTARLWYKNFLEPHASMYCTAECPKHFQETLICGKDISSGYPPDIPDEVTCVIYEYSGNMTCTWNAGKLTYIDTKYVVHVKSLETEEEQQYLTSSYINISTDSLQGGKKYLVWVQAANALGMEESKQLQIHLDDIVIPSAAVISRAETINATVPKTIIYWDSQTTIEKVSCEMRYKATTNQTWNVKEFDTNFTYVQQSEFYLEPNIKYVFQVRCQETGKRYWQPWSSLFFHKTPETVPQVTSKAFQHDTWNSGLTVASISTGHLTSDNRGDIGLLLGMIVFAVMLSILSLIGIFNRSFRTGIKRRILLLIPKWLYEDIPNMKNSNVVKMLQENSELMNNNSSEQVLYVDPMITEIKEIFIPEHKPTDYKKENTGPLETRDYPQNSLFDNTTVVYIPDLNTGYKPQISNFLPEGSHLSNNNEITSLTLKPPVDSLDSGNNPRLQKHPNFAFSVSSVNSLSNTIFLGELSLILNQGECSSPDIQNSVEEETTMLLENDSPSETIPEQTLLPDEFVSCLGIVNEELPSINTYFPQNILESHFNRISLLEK

[5] = molecular target: T1, human IL-23R endogenously expressed on …; assay: cell-based or functional assay; remark: listed apart in the source
[6] = molecular target: T1, human IL-23R endogenously expressed on …; assay: cell-based or functional assay; remark: listed apart in the source

B1: Compound 22 (peptide)
peptide: Ac-DKSCWQCW[2Nal]LER-NH2
modifications: lactam 2-11; bridge 4-7; not fully specified (bridges); printed as [Ac]-DK(1c)SC(2f)WQC(2f)W[2-Nal]LE(1c)R-[NH2]
IC50 (pSTAT3) [1]: > 1 µM
IC50 (pSTAT3) [2]: > 1 µM

B2: Compound 21 (peptide)
peptide: Ac-DKSCWQCW[2Nal]LER-NH2
modifications: lactam 2-11; bridge 4-7; not fully specified (bridges); printed as [Ac]-DK(1c)SC(2e)WQC(2e)W[2-Nal]LE(1c)R-[NH2]
IC50 (pSTAT3) [1]: > 1 µM
IC50 (pSTAT3) [2]: > 1 µM

Ac-ESCWQCWWLKR-NH2 (lactam 1-10; linker 3-6 via 1,3‑dibromopropan‑2‑one) [Compound 10]
IC50 (pSTAT3) [3]: 617 nM
IC50 (pSTAT3) [2]: 617 nM

Ac-KTCWQC[AEF][2Nal][αMeL]E[Dab][3Pal]-NH2 (lactam 1-10; linker 3-6 via 1,3‑dibromopropan‑2‑one(3)) [Compound 155]
IC50 (pSTAT3) [2]: 30.5 pM
Ki [4]: 0.00805 nM

[4‑Aminomethyl‑phenylacetyl]SEWQ[Dab][AEF][2Nal][αMeL]E-{NH‑3‑aminopropanoyl} (lactam N-10, 3-6) [Compound 137]
IC50 (pSTAT3) [2]: 24.1 nM
Ki [4]: 0.518 nM

Ac-DKSCWQCWWLER-NH2 (lactam 2-11; linker 4-7 via 1,3‑dibromopropan‑2‑one) [Compound 7]
IC50 (pSTAT3) [5]: 159 nM
IC50 (pSTAT3) [2]: 159 nM

B3: Compound 20 (peptide)
peptide: Ac-DKSCWQCW[2Nal]LER-NH2
modifications: lactam 2-11; bridge 4-7; not fully specified (bridges); printed as [Ac]-DK(1c)SC(2d)WQC(2d)W[2-Nal]LE(1c)R-[NH2]
IC50 (pSTAT3) [1]: 79.2 nM
IC50 (pSTAT3) [2]: 79.2 nM

B4: Compound 16 (peptide)
peptide: DESCXQCWWLKR
HELM: PEPTIDE1{[ac].D.E.S.C.[Cc1cccc2c(C[C@H](N[*:1])C(=O)[*:2])c[nH]c12].Q.C.W.W.L.K.R.[am]}|CHEM1{[O=C(C[*:1])C[*:2]]}$PEPTIDE1,PEPTIDE1,3:R3-12:R3|PEPTIDE1,CHEM1,5:R3-1:R1|PEPTIDE1,CHEM1,8:R3-1:R2$$$V2.0
SMILES: CC(=O)N[C@@H](CC(=O)O)C(=O)N[C@H]1CCC(=O)NCCCC[C@@H](C(=O)N[C@@H](CCCNC(=N)N)C(N)=O)NC(=O)[C@H](CC(C)C)NC(=O)[C@H](Cc2c[nH]c3ccccc23)NC(=O)[C@H](Cc2c[nH]c3ccccc23)NC(=O)[C@@H]2CSCC(=O)CSC[C@H](NC(=O)[C@H](CO)NC1=O)C(=O)N[C@@H](Cc1c[nH]c3c(C)cccc13)C(=O)N[C@@H](CCC(N)=O)C(=O)N2
IC50 (pSTAT3) [2]: 461 nM
IC50 (pSTAT3) [6]: 461 nM
